One block for each binder: values may come before it. Where no end group is shown, it is not given here. [ ]: non-standard residue; d: D form. NMeE = CN[C@@H](CCC(=O)O)C(=O)O
Biological target: clotted plasma proteins
Assay: binding to plasma clots; method not described, data not shown

Kd: 2.5 µM
B1: CR(NMe)EKA (peptide)
peptide: CR[NMeE]KA

Kd: 6 µM
B2: CREKA peptide (cys-arg-glu-lys-ala) (peptide)
peptide: CREKA

From US20110165064A1
